Positions count from the first letter of the chain named. In names and notes the source's numbering stands.
Experiments:
Experiment in all cases: BLI
CXCL4_HUMAN = target: T1, CXCL4_HUMAN (human, UniProt P02776 32-101)
T1 sequence: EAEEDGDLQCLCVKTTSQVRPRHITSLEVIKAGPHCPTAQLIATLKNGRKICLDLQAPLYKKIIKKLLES

CXCL5_HUMAN = target: T2, CXCL5_HUMAN (human, UniProt P42830 41-114)
T2 sequence: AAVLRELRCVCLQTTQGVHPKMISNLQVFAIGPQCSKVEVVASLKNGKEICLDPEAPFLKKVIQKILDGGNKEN

CXCL9_HUMAN = target: T3, CXCL9_HUMAN (human, UniProt Q07325 23-125)
T3 sequence: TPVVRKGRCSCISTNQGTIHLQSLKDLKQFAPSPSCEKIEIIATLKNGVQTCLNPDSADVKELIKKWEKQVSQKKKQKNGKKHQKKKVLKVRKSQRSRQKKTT

CXCL2_HUMAN = target: T4, CXCL2_HUMAN (human, UniProt P19875 35-107)
T4 sequence: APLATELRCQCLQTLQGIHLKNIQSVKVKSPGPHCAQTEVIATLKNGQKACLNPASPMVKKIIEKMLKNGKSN

CXCL6_HUMAN = target: T5, CXCL6_HUMAN (human, UniProt P80162 38-114)
T5 sequence: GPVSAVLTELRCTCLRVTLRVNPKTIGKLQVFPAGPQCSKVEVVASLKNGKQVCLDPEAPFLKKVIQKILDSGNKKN

CXCL8_HUMAN = target: T6, CXCL8_HUMAN (human, UniProt P10145 28-99)
T6 sequence: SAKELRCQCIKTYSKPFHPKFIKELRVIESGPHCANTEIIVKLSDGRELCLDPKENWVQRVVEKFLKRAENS

CXCL12_HUMAN = CXCL12_HUMAN (human, UniProt P48061 22-89)
Chain of CXCL12_HUMAN (P48061 22-89 limits assumed): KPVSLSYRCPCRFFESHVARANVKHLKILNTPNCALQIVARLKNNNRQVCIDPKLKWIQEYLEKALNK

CXCL1_HUMAN = target: T7, CXCL1_HUMAN (human, UniProt P09341 35-107)
T7 sequence: T4 sequence with P2S, L3V, L20P, K27N, Q48R, M58I, K68N, N69S, G70D

CXCL13_HUMAN = target: T8, CXCL13_HUMAN (human, UniProt O43927 23-109)
T8 sequence: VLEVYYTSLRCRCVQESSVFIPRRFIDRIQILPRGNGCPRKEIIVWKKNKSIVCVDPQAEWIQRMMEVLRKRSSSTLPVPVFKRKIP

CXCL10_HUMAN = target: T9, CXCL10_HUMAN (human, UniProt P02778 22-98)
T9 sequence: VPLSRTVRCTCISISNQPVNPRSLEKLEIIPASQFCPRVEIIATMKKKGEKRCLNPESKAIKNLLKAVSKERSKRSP

CXCL11_HUMAN = target: T10, CXCL11_HUMAN (human, UniProt O14625 22-94)
T10 sequence: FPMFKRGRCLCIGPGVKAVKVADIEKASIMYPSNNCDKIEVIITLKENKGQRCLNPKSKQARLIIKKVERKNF

CXCL3_HUMAN = target: T11, CXCL3_HUMAN (human, UniProt P19876 35-107)
T11 sequence: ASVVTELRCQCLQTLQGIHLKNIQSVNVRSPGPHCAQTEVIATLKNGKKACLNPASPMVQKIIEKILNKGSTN

CXCL7_HUMAN = target: T12, CXCL7_HUMAN (human, UniProt P02775 59-128)
T12 sequence: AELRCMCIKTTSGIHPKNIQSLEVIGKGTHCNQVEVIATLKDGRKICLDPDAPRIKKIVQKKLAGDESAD

CXCL14_HUMAN = target: T13, CXCL14_HUMAN (human, UniProt O95715 35-111)
T13 sequence: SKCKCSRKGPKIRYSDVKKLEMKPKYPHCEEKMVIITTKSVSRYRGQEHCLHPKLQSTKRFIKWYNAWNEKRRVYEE

CCL14_HUMAN = target: T14, CCL14_HUMAN (human, UniProt Q16627 22-93)
T14 sequence: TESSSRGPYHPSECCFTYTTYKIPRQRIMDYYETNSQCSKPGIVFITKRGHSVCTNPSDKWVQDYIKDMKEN

CCL20_HUMAN = CCL20_HUMAN (human, UniProt P78556 27-96)
Chain of CCL20_HUMAN (P78556 27-96 limits assumed): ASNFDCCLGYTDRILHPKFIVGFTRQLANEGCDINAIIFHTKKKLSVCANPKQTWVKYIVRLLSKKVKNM

CCL3_HUMAN = target: T15, CCL3_HUMAN (human, UniProt P10147 24-92)
T15 sequence: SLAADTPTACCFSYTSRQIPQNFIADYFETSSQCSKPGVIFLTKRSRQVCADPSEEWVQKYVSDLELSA

CCL2_HUMAN = CCL2_HUMAN (human, UniProt P13500 24-99)
Chain of CCL2_HUMAN (P13500 24-99 limits assumed): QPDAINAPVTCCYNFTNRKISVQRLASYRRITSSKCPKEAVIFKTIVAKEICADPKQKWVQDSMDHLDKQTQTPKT

CCL4L1_HUMAN = target: T16, CCL4L1_HUMAN (human, UniProt Q8NHW4 24-92)
T16 sequence: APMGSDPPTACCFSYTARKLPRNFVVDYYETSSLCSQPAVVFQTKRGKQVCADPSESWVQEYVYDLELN

CCL18_HUMAN = target: T17, CCL18_HUMAN (human, UniProt P55774 21-89)
T17 sequence: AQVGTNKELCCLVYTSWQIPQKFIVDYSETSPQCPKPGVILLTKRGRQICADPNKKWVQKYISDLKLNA

CCL3L1_HUMAN = target: T18, CCL3L1_HUMAN (human, UniProt P16619 24-93)
T18 sequence: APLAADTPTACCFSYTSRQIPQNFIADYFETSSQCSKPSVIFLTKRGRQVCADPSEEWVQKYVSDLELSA

B1: P991:G4S:P1156 (designed binder)
chain: ENGEGTTQPDYDNSTDYYNYEDFKCTCPAPHLNNTNGTVMKPIGCYYTCNVTRCTAPDTYPCYNLTEHQAKNLTTSPTTLCAVGNCDHGICVPNGTKELCFKAPNLEEGGGGSADDDNELFTVQYCGMNCTKDEGGTWTGCTGKKEGCKCYHESGKNYGLCLSTEYTDFSQYGNPSDSEIEAAKPKRSDTLSH
CXCL4_HUMAN
  binding result: no binding
CXCL5_HUMAN
  RT: 2.32 min
CXCL9_HUMAN
  binding result: no binding
CXCL2_HUMAN
  RT: 2.32 min
CXCL6_HUMAN
  binding result: no binding
CXCL8_HUMAN
  Kd: 3.56 nM
  RT: 36.8 min
CXCL12_HUMAN
  binding result: no binding
CXCL1_HUMAN
  Kd: 5.08 nM
  RT: 21 min
CXCL13_HUMAN
  binding result: no binding
CXCL10_HUMAN
  binding result: no binding
CXCL11_HUMAN
  binding result: no binding
CXCL3_HUMAN
  Kd: 89.9 nM
  RT: 3.28 min
CXCL7_HUMAN
  binding result: no binding
CXCL14_HUMAN
  binding result: no binding
CCL14_HUMAN
  Kd: 0.835 nM
  RT: 135 min
CCL20_HUMAN
  binding result: no binding
CCL3_HUMAN
  Kd: 2.22 nM
  RT: 37.1 min
CCL2_HUMAN
  Kd: 24.8 nM
  RT: 4.02 min
CCL4L1_HUMAN
  Kd: 1.24 nM
  RT: 38.3 min
CCL18_HUMAN
  Kd: 0.143 nM
  RT: 293 min
CCL3L1_HUMAN
  Kd: 2.91 nM
  RT: 43.8 min

B2: P1156:G4S:P991 (designed binder)
chain: ADDDNELFTVQYCGMNCTKDEGGTWTGCTGKKEGCKCYHESGKNYGLCLSTEYTDFSQYGNPSDSEIEAAKPKRSDTLSHGGGGSENGEGTTQPDYDNSTDYYNYEDFKCTCPAPHLNNTNGTVMKPIGCYYTCNVTRCTAPDTYPCYNLTEHQAKNLTTSPTTLCAVGNCDHGICVPNGTKELCFKAPNLEE
notes: also called two-warhead evasin
CXCL4_HUMAN
  binding result: no binding
CXCL5_HUMAN
  RT: 3.08 min
CXCL9_HUMAN
  binding result: no binding
CXCL2_HUMAN
  RT: 2.89 min
CXCL6_HUMAN
  binding result: no binding
CXCL8_HUMAN
  Kd: 1.5 nM
  RT: 71.3 min
CXCL12_HUMAN
  binding result: no binding
CXCL1_HUMAN
  Kd: 2.72 nM
  RT: 30.3 min
CXCL13_HUMAN
  binding result: no binding
CXCL10_HUMAN
  binding result: no binding
CXCL11_HUMAN
  binding result: no binding
CXCL3_HUMAN
  Kd: 61.4 nM
  RT: 3.61 min
CXCL7_HUMAN
  binding result: no binding
CXCL14_HUMAN
  binding result: no binding
CCL14_HUMAN
  Kd: 0.664 nM
  RT: 159 min
CCL20_HUMAN
  binding result: no binding
CCL3_HUMAN
  Kd: 1.89 nM
  RT: 38.2 min
CCL2_HUMAN
  Kd: 32.1 nM
  RT: 3.25 min
CCL4L1_HUMAN
  Kd: 1.28 nM
  RT: 33.8 min
CCL18_HUMAN
  Kd: 0.201 nM
  RT: 182 min
CCL3L1_HUMAN
  Kd: 3.09 nM
  RT: 34.7 min
